The values below come from US20220003784A1 (ASSISTANCE PUBLIQUE H PITAUX DE MARSEILLE, published 2022).

The target in series [1] is T1, Human long CD146 protein.
T1 chain: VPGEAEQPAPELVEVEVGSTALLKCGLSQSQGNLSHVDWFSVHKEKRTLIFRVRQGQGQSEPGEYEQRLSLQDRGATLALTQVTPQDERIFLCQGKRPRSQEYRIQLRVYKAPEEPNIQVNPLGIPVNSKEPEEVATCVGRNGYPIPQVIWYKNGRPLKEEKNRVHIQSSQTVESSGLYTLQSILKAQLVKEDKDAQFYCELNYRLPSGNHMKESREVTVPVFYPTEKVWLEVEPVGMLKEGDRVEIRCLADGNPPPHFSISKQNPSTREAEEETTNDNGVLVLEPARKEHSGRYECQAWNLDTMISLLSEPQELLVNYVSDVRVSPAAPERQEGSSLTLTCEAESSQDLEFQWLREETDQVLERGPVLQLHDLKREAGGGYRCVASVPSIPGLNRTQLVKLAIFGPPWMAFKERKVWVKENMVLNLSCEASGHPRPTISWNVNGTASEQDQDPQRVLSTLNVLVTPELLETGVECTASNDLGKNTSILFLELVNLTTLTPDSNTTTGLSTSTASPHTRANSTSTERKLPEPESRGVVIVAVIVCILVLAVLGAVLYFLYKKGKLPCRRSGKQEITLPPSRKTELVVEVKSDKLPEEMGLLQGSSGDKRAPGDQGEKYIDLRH

Series [2] has as its target T2, ADAM10 (UniProt O14672 214-748, limits assumed).
T2 construct: Endogenous protein of ECFC endothelial cells
T2 sequence (looked up): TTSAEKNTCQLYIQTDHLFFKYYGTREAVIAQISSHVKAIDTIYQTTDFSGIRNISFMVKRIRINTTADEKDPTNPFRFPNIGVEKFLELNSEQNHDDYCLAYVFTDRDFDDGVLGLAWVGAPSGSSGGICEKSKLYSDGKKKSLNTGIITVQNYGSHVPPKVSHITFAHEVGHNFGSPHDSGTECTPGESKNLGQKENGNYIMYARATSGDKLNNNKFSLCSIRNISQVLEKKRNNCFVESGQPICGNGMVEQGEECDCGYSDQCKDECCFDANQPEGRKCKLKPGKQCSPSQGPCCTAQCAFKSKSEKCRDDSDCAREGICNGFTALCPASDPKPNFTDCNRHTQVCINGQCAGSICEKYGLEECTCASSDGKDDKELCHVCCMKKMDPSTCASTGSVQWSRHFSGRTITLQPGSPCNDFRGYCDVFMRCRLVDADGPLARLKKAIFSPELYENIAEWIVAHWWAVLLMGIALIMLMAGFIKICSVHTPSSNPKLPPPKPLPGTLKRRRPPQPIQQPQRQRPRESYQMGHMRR
Description: co-immunoprecipitation from ECFC in control condition (ADAM10 immunoprecipitated, CD146 isoforms detected by western blot). From the text:
C: ADAM10 was immunoprecipitated in ECFC cultured in basal condition (EBM2). The long (IgCD146) and short (shCD146) isoforms of CD146 were then detected by western blot using specific antibodies. Results are representative of 3 different experiments.
(Immunoblotting shows a protein as a band on a membrane.)

B1: ADAM10 (protein)
chain: T2 sequence (looked up)
For B1, in series [1], the “reduction of sCD146 secretion by ECFC under TNF after ADAM10 siRNA” value was “ADAM10 and Tace siRNA reduced sCD146 secretion by 60% and 25%, respectively”; the “sCD146 secretion by ECFC in control condition after siRNA” value was “only ADAM10 siRNA was able to inhibit sCD146 secretion and that the effect was similar to that of GM6001”; the “sCD146 secretion by a CHO clone stably expressing lgCD146 after transfection with an ADAM10 plasmid” value is on record as “in the presence of ADAM10, sCD146 secretion was significantly increased”.

B2: Human short CD146 protein (other)
chain: VPGEAEQPAPELVEVEVGSTALLKCGLSQSQGNLSHVDWFSVHKEKRTLIFRVRQGQGQSEPGEYEQRLSLQDRGATLALTQVTPQDERIFLCQGKRPRSQEYRIQLRVYKAPEEPNIQVNPLGIPVNSKEPEEVATCVGRNGYPIPQVIWYKNGRPLKEEKNRVHIQSSQTVESSGLYTLQSILKAQLVKEDKDAQFYCELNYRLPSGNHMKESREVTVPVFYPTEKVWLEVEPVGMLKEGDRVEIRCLADGNPPPHFSISKQNPSTREAEEETTNDNGVLVLEPARKEHSGRYECQAWNLDTMISLLSEPQELLVNYVSDVRVSPAAPERQEGSSLTLTCEAESSQDLEFQWLREETDQVLERGPVLQLHDLKREAGGGYRCVASVPSIPGLNRTQLVKLAIFGPPWMAFKERKVWVKENMVLNLSCEASGHPRPTISWNVNGTASEQDQDPQRVLSTLNVLVTPELLETGVECTASNDLGKNTSILFLELVNLTTLTPDSNTTTGLSTSTASPHTRANSTSTERKLPEPESRGVVIVAVIVCILVLAVLGAVLYFLYKKGKLPCRRSGKQEMERNTSI
notes: Endogenous membrane isoform in ECFC, detected by western blot in immunoprecipitates from cell lysates; also expressed from a plasmid in CHO cells; also called shCD146; short isoform of CD146
Regarding B2, the binding result in series [2] was “no binding”.
